Experimental findings from patent US20150252117A1 (Genentech, published 2015) are described below.

Experiment [1] concerns the target T1, Human Jag1-DSL-EGF1-4 (human, UniProt P78504 34-377).
T1 construct: Secreted protein from BEVS cells; also called human Jagged1; hJag1; not shown: TEV protease cleavage site and 6-His tag at the C-terminus
Briefly: SPR (BIAcore T200), IgG1 captured, ligand as analyte, 25 C. (Surface plasmon resonance follows binding to a sensor surface in real time, without labels.)

In experiment [2] the target is T2, Murine Jag1-DSL-EGF1-4 (mouse, UniProt Q9QXX0 34-377).
T2 construct: also called murine Jagged1; mouse Jagged1
The description is as above.

The target of experiment [3] is T3, murine Delta-like 4 (DSL-EGF1-4 fragment) (mouse, UniProt Q9JI71 27-366, limits assumed).
T3 construct: domain: DSL-EGF1-4; Recombinant purified Notch ligand; also called murine DLL4; mouse DLL4
Briefly: ELISA, Notch ligand coated at 1 ug/ml, serial 3-fold dilutions of IgG, anti-human Fab-peroxidase, A630 [left panel, A-2].

Experiment [4] concerns the target T4, human Delta-like 4 (DSL-EGF1-4 fragment) (human, UniProt Q9NR61 27-365, limits assumed).
T4 construct: domain: DSL-EGF1-4; Recombinant purified Notch ligand; also called human DLL4; hDLL4
The experiment is described as above.

Experiment [5] deals with T5, Human Jag2-DSL-EGF1-4 (human, UniProt Q9Y219 24-388).
T5 construct: also called human Jagged2; hJag2
T5 sequence: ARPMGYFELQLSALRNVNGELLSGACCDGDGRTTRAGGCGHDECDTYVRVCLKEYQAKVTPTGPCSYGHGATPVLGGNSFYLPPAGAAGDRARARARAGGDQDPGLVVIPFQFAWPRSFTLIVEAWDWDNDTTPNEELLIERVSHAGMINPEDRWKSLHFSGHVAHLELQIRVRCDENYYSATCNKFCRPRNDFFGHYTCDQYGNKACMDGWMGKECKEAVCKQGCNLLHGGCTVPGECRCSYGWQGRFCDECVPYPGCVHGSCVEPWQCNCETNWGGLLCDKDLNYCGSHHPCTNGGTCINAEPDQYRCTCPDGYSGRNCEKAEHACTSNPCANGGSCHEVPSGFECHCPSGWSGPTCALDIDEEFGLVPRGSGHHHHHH
The description is as above.

Experiment [6] concerns the target T6, murine Delta-like 1 (DSL-EGF1-4 fragment) (mouse, UniProt Q61483 18-367, limits assumed).
T6 construct: domain: DSL-EGF1-4; Recombinant purified Notch ligand; also called murine DLL1; mouse DLL1
The description is as above.

In experiment [7] the target is T7, Murine Jag2-DSL-EGF1-4 (mouse, UniProt Q9QYE5 27-388).
T7 construct: also called murine Jagged2; Mouse Jag2
T7 sequence: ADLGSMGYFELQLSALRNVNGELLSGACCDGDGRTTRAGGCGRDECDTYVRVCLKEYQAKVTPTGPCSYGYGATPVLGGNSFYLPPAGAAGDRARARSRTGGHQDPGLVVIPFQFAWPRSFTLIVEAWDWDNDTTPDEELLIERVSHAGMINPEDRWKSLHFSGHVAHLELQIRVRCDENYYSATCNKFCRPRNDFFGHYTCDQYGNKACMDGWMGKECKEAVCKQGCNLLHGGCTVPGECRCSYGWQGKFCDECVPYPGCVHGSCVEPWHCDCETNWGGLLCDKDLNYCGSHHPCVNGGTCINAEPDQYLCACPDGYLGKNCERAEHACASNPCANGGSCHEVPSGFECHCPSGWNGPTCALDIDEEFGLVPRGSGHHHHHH
The description is as above.

For experiment [8], the target named is T8, human Delta-like 1 (DSL-EGF1-4 fragment) (human, UniProt O00548 18-368, limits assumed).
T8 construct: domain: DSL-EGF1-4; Recombinant purified Notch ligand; also called human DLL1; hDLL1
T8 sequence (looked up): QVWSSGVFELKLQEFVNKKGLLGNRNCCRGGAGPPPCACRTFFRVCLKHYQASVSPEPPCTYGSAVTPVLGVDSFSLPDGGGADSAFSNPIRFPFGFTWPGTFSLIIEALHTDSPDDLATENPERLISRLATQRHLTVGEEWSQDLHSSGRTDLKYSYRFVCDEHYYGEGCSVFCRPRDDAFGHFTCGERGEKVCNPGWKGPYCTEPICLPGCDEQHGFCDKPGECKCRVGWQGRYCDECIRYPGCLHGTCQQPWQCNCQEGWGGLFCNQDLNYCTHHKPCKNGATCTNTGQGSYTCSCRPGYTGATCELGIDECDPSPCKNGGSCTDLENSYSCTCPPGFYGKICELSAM
Described as above.

Experiment [9] concerns the target T1, Human Jag1-DSL-EGF1-4. Briefly: SPR (BIAcore-3000), IgG captured, Jag DSL-EGF1-4 as analyte, 25 C.
Experiment [10] addresses T1, Human Jag1-DSL-EGF1-4. Briefly: ELISA on human Jagged1 (Jag-1 bars), OD450 nm.
Experiment [11] has as its target T5, Human Jag2-DSL-EGF1-4. Briefly: SPR (BIAcore-3000), IgG captured, Jag DSL-EGF1-4 as analyte, 25 C.
Experiment [12] concerns the target T7, Murine Jag2-DSL-EGF1-4. Described as above.
Experiment [13] concerns the target T2, Murine Jag1-DSL-EGF1-4. Briefly: SPR (BIAcore-3000), IgG captured, Jag DSL-EGF1-4 as analyte.
Experiment [14] has as its target T9, purified Jag1 extracellular domain protein fragment (Homo sapiens (Human), UniProt P78504 34-377).
T9 construct: not shown: C-terminal TEV protease cleavage site and 6-His tag of the human Jag1-DSL-EGF1-4 antigen
Briefly: BIAcore (SPR), purified Jag1 extracellular domain fragment.

Experiment [15] concerns the target T5, Human Jag2-DSL-EGF1-4. Briefly: SPR (BIAcore T200), IgG1 captured, ligand as analyte, 25 C.
Experiment [16] addresses T7, Murine Jag2-DSL-EGF1-4. Described as above.
In experiment [17] the target is T6, murine Delta-like 1 (DSL-EGF1-4 …). Briefly: SPR (BIAcore T200), IgG1 captured, ligand as analyte; value marked * (asterisk not explained).
Experiment [18] deals with T8, human Delta-like 1 (DSL-EGF1-4 fragment). The experiment is described as above.
Experiment [19] deals with T3, murine Delta-like 4 (DSL-EGF1-4 …). Briefly: SPR (BIAcore T200), IgG1 captured, ligand as analyte.
For experiment [20], the target named is T4, human Delta-like 4 (DSL-EGF1-4 fragment). The experiment is described as above.

B1: Antibody A-2 (antibody, human IgG1, V domains shown)
VH: EVQLVESGGGLVQPGGSLRLSCAASGFTFSNYGIHWVRQAPGKGLEWVGWITGNGGYSDYADSVKGRFTISADTSKNTAYLQMNSLRAEDTAVYYCARAGSWFAYWGQGTLVTVSS
VL: DIQMTQSPSSLSASVGDRVTITCRASQDVSTAVAWYQQKPGKAPKLLIYSASFLYSGVPSRFSGSGSGTDFTLTISSLQPEDFATYYCQQSYTTPPTFGQGTKVEIK
notes: also called anti-Jagged1 antibody A-2
Turning to B1, the Kd with Human Jag1-DSL-EGF1-4 [1] came to 382 pM; in the experiment with Murine Jag1-DSL-EGF1-4 [2], 150 pM; with Human Jag1-DSL-EGF1-4 [9] it was 300 pM. Besides, the koff with Human Jag1-DSL-EGF1-4 [1] worked out at 9.23e-05 s⁻¹; in the experiment with Murine Jag1-DSL-EGF1-4 [2], 5.77e-05 s⁻¹; in the experiment with Human Jag1-DSL-EGF1-4 [9] it was 7.1e-05 s⁻¹. For the same molecule, the kon with Human Jag1-DSL-EGF1-4 [1] amounted to 242000 M⁻¹ s⁻¹; with Murine Jag1-DSL-EGF1-4 [2], 385000 M⁻¹ s⁻¹; in the experiment with Human Jag1-DSL-EGF1-4 [9] it was 230000 M⁻¹ s⁻¹. Also, the binding result (in experiment [3]; in [4]; in the experiment with Human Jag2-DSL-EGF1-4 [5]; in [6]; in the experiment with Murine Jag2-DSL-EGF1-4 [7]; in [8]) was “no binding” in each case.

B2: Antibody B (antibody, V domains shown)
VH: EVQLVESGGGLVQPGGSLRLSCAASGFTFTSYDIHWVRQAPGKGLEWVGGISPADGDTDYANSVKGRFTISADTSKNTAYLQMNSLRAEDTAVYYCARNDYDVRSVGSGMDYWGQGTLVTVSS
VL: DIQMTQSPSSLSASVGDRVTITCRASQDVSTAVAWYQQKPGKAPKLLIYSASFLYSGVPSRFSGSGSGTDFTLTISSLQPEDFATYYCQQSYTTPPTFGQGTKVEIK
notes: Anti-Jagged2 antibody, human IgG1; also called parental antibody of antibody B-3
In the case of B2, the binding result with Human Jag1-DSL-EGF1-4 [10] is “no binding”. In the experiment with Human Jag2-DSL-EGF1-4 [11], the affinity, expressed as Kd, was 1000 pM; the koff is 0.0026 s⁻¹; the kon stood at 2.5e+06 M⁻¹ s⁻¹. In the experiment with Murine Jag2-DSL-EGF1-4 [12], the Kd came out at 1000 pM, the koff worked out at 0.0026 s⁻¹ and the kon was determined as 2.5e+06 M⁻¹ s⁻¹. The binding result in the experiment with Murine Jag1-DSL-EGF1-4 [13] was “no binding”.

B3: Antibody A-1 (antibody, human IgG1, kappa, V domains shown)
VH: EVQLVESGGGLVQPGGSLRLSCAASGFTFSNYGIHWVRQAPGKGLEWVGWITPDGGYTDYADSVKGRFTISADTSKNTAYLQMNSLRAEDTAVYYCARAGSLFAYWGQGTLVTVSS
VL: DIQMTQSPSSLSASVGDRVTITCRASQDVSTAVAWYQQKPGKAPKLLIYSASFLYSGVPSRFSGSGSGTDFTLTISSLQPEDFATYYCQQYYTTATTFGQGTKVEIKR
In turn, B3 displayed a Kd in [14] of 799 pM.

B4: Antibody A-1 S101A (antibody, V domains shown)
VH: EVQLVESGGGLVQPGGSLRLSCAASGFTFSNYGIHWVRQAPGKGLEWVGWITPDGGYTDYADSVKGRFTISADTSKNTAYLQMNSLRAEDTAVYYCARAGALFAYWGQGTLVTVSS
VL: DIQMTQSPSSLSASVGDRVTITCRASQDVSTAVAWYQQKPGKAPKLLIYSASFLYSGVPSRFSGSGSGTDFTLTISSLQPEDFATYYCQQYYTTATTFGQGTKVEIK
notes: Mutant of A-1 expressed in mammalian cells; also called A-1 G100, S101A
Turning to B4, in experiment [14], the Kd worked out at 4620 pM, the off-rate (koff) was found to be 0.000675 s⁻¹ and the kon was found to be 146000 M⁻¹ s⁻¹.

B5: Antibody B-3 (antibody, human IgG1, V domains shown)
VH: EVQLVESGGGLVQPGGSLRLSCAASGFTFTSYDIHWVRQAPGKGLEWVGGISPADGDTDYANSVKGRFTISADTSKNTAYLQMNSLRAEDTAVYYCARNDYDVRFVGSGMDYWGQGTLVTVSS
VL: DIQMTQSPSSLSASVGDRVTITCRASQDVSTAVAWYQQKPGKAPKLLIYSASFLYSGVPSRFSGSGSGTDFTLTISSLQPEDFATYYCQQSFTAPPTFGQGTKVEIK
notes: also called anti-Jagged2 antibody B-3; anti-Jag2 B-3
With B5, the Kd with Human Jag2-DSL-EGF1-4 [15] came to 41 pM; in the experiment with Murine Jag2-DSL-EGF1-4 [16], 57.1 pM; in experiment [17] it was 72300 pM; in [18] it was 349000 pM; with Murine Jag2-DSL-EGF1-4 [12], 300 pM. In addition, the figures for the koff in the experiment with Human Jag2-DSL-EGF1-4 [15], with Murine Jag2-DSL-EGF1-4 [16] and with Murine Jag2-DSL-EGF1-4 [12] were 0.000188 s⁻¹, 4.4e-05 s⁻¹ and 0.000175 s⁻¹, respectively. Besides, the figures for the kon in the experiment with Human Jag2-DSL-EGF1-4 [15], with Murine Jag2-DSL-EGF1-4 [16] and with Murine Jag2-DSL-EGF1-4 [12] were 4.58e+06 M⁻¹ s⁻¹, 771000 M⁻¹ s⁻¹ and 580000 M⁻¹ s⁻¹, respectively. Besides, the binding result in experiment [19] and in experiment [20] was “no binding” throughout.

For orientation: Kd means the equilibrium constant for the complex coming apart. A low value points to tighter binding. By koff is commonly meant the first-order rate constant of dissociation. A high value points to fast dissociation. What is called kon is a measure of how fast the partners come together.
